The values below come from IntAct's records for PubMed 16717101.

First the molecules themselves.
B1: Regulatory protein SIR4 (Saccharomyces cerevisiae), P11978 (parent)
chain: MPNDNKTPNRSSTPKFTKKPVTPNDKIPEREEKSNEVKTPKIPLFTFAKSKNYSRPSTAIHTSPHQPSDVKPTSHKQLQQPKSSPLKKNNYNSFPHSNLEKISNSKLLSLLRSKTSAGRIESNNPSHDASRSLASFEQTAFSRHAQQQTSTFNSKPVRTIVPISTSQTNNSFLSGVKSLLSEEKIRDYSKEILGINLANEQPVLEKPLKKGSADIGASVISLTKDKSIRKDTVEEKKEEKLNIGKNFAHSDSLSVPKVSAGDSGISPEESKARSPGIAKPNAIQTEVYGINEESTNERLEINQEKPVKLDENSANSTVASALDTNGTSATTETLTSKKIVPSPKKVAIDQDKITLHDEKTLAPSKHQPITSEQKMKEDADLKRMEILKSPHLSKSPADRPQGRRNSRNFSTRDEETTKLAFLVEYEGQENNYNSTSRSTEKKNDMNTSAKNKNGENKKIGKRPPEIMSTEAHVNKVTEETTKQIQSVRIDGRKVLQKVQGESHIDSRNNTLNVTPSKRPQLGEIPNPMKKHKPNEGRTPNISNGTINIQKKLEPKEIVRDILHTKESSNEAKKTIQNPLNKSQNTALPSTHKVTQKKDIKIGTNDLFQVESAPKISSEIDRENVKSKDEPVSKAVESKSLLNLFSNVLKAPFIKSESKPFSSDALSKEKANFLETIASTEKPENKTDKVSLSQPVSASKHEYSDNFPVSLSQPSKKSFANHTEDEQIEKKKICRGRMNTIITHPGKMELVYVSDSDDSSSDNDSLTDLESLSSGESNEIKVTNDLDTSAEKDQIQAGKWFDPVLDWRKSDRELTKNILWRIADKTTYDKETITDLIEQGIPKHSYLSGNPLTSVTNDICSVENYETSSAFFYQQVHKKDRLQYLPLYAVSTFENTNNTEKNDVTNKNINIGKHSQEQNSSSAKPSQIPTVSSPLGFEETKLSTTPTKSNRRVSHSDTNSSKPKNTKENLSKSSWRQEWLANLKLISVSLVDEFPSELSDSDRQIINEKMQLLKDIFANNLKSAISNNFRESDIIILKGEIEDYPMSSEIKIYYNELQNKPDAKKARFWSFMKTQRFVSNMGFDIQKSCEPVSISTSVKPHVVEPEHMADAKIMPKDILQITKKPLMVKNVKPSSPPDVKSLVQLSTMETKTLPEKKQFDSIFNSNKAKIIPGNGKHASENISLSFSRPASYGYFSVGKRVPIVEDRRVKQLDDITDSNTTEILTSVDVLGTHSQTGTQQSNMYTSTQKTELEIDNKDSVTECSKDMKEDGLSFVDIVLSKAASALDEKEKQLAVANEIIRSLSDEVMRNEIRITSLQGDLTFTKKCLENARSQISEKDAKINKLMEKDFQVNKEIKPY

The variants in this experiment derive from B1. The note with it: with sir3_yeast SIR3, P06701.
Chain of sir3_yeast SIR3, P06701 (P06701 whole entry): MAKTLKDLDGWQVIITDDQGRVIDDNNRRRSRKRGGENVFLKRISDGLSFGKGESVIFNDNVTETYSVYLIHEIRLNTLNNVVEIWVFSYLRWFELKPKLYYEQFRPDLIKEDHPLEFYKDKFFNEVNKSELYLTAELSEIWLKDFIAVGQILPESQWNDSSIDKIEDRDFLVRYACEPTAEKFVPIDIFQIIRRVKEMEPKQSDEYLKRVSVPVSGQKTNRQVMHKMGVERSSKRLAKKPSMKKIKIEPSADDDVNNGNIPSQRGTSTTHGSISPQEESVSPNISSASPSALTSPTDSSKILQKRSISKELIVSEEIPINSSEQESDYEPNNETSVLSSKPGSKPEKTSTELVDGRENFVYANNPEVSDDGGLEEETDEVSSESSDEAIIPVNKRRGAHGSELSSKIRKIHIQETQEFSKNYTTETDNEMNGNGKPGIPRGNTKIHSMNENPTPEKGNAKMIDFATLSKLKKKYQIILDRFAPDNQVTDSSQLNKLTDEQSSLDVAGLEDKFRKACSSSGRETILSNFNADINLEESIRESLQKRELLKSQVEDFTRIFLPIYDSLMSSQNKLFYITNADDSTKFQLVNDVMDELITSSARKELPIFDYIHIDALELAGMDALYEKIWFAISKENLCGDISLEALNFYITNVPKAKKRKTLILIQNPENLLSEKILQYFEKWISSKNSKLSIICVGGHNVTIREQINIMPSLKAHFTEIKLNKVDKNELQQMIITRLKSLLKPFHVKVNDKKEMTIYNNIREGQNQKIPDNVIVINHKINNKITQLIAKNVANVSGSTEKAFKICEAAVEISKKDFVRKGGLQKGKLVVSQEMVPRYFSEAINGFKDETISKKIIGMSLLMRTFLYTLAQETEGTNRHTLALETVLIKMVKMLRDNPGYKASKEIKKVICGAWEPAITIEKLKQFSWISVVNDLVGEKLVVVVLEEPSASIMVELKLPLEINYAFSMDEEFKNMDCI
Turning to M1307N, the “effect of a mutation on the interaction” value is “decreasing interaction”.
